Results on one molecule are retold here after patent US20130224191A1, “NOTUM PROTEIN MODULATORS AND METHODS OF USE” (priority 2010, published 2013).

“Also recorded” adds a separate entry of the source.

Data set [1] addresses T1, hNotum-His (His tagged human Notum) (human, UniProt Q6P988 20-496).
T1 construct: also called human Notum-His; NOTUM-StrepHis
T1 sequence: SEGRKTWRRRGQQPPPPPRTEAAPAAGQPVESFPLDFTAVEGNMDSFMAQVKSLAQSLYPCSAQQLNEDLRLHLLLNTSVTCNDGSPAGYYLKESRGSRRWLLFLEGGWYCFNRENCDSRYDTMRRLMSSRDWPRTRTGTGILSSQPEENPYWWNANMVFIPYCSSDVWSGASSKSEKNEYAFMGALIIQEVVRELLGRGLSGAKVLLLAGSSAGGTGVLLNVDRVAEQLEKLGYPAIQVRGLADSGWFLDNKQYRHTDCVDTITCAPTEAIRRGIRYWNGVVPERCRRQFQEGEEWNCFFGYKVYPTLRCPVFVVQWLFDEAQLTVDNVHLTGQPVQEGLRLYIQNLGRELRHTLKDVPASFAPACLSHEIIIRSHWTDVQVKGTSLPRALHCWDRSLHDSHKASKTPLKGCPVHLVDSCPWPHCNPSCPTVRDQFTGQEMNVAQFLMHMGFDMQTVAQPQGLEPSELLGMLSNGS
As to the kind of experiment: sandwich ELISA: SC2.D2.2 coated at 2 ug/ml captures Notum-His, detected with biotinylated mouse polyclonal anti-Notum 0.5 ug/ml and streptavidin-HRP, TMB, OD450. The procedure:
More specifically, murine SC2.D2.2 was absorbed on standard ELISA plates at 2 μg/ml in a 50 mM sodium carbonate buffer at pH9.6. After washing the plates with PBS containing 0.05% (v/v) Tween-20 (PBST), the plates were blocked in PBS containing 2% (w/v) bovine serum albumin (BSA buffer) for two hours at ambient temperature. The content of the plates was flicked off, and purified recombinant Notum-His at varying concentrations (i.e., to provide the standard curve) or patient samples diluted in BSA buffer were added to the plates for a minimum of two hours at ambient temperature. The plates were washed in PBST before adding Notum-specific mouse polyclonal antibody conjugated to biotin at 0.5 μg/ml in BSA buffer. After incubation for one hour, the plate was washed again with PBST and incubated for 30 minutes with a 1:2000 dilution of Streptavidin conjugated to horse radish peroxidase (Jackson Immuno Research). After washing all plates twice with PBST, 100 μl TMB substrate (Thermo Scientific) was added to the wells and incubated for 30 minutes in the dark. Color reaction was stopped by adding 100 μl/well 2M sulfuric acid. Absorbance at OD 450 nm was read in all wells using a standard plate reader.

The next data set concerns the target T2, hNotum (Homo sapiens, UniProt Q6P988).
T2 construct: 8x-His; Strep-tag II; IgK signal peptide/leader of the pSEC-CAG vector (N); made in house; host or cells: HEK293T (adherent) / suspension 293 cells
T2 sequence (Q6P988 20-496): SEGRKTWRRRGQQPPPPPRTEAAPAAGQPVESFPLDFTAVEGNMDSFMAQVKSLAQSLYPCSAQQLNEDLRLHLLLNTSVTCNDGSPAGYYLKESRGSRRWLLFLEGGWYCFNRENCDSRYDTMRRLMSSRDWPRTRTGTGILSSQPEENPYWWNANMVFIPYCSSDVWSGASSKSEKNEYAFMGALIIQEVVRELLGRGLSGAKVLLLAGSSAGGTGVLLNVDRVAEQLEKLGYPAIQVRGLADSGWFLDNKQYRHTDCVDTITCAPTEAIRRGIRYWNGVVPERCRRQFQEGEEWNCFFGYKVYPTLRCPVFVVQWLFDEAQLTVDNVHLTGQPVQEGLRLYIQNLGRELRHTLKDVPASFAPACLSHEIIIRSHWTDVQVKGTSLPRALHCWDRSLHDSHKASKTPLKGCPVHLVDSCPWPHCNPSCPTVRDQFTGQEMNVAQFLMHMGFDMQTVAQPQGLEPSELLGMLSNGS
As to the kind of experiment: Inhibition of hNotum esterase activity. As to conditions: preincubation with hNotum. Type of data set: biochemical. The protocol:
Briefly, PNPA or PNPB were dissolved/diluted in isopropanol to final concentrations of 10 mM. These substrate solutions were diluted 1:10 into assay buffer (0.1% gum arabic, 2.3 mg/mL sodium dexoycholate, 1×PBS) and incubated with defined amounts of hNotum enzyme, and the enzymatic release of the chromophore p-nitrophenol monitored by absorbance measurements at 405 nm.
The results presented immediately above indicate that the measured esterase activity may be used to provide an assay that allows for the further characterization of the disclosed Notum modulators. […] As may be seen in FIG. 18A an increase in hNotum levels increases measured enzymatic activity even, to some extent, in the case where the SC2.D2.2 antibody is present. Conversely, FIG. 18B provides a dose response curve of measured enzymatic activity where the amount of hNotum is fixed at 1 μg/mL and the concentration of SC2.D2.2 is varied. […] In contrast a control antibody (MOPC) has no effect on the esterase activity of Notum (data not shown).

The subject of the next data set is macaque Notum-Fc. The data set can be described thus: Neutralization of macaque Notum in 293.TCF assay. Type of data set: cell-based. The protocol: Using the 293.TCF cells, purified SC2.D2.2 and SC2.A106 antibodies were tested for their ability to neutralize murine Notum-His or macaque Notum-Fc activity as follows. 2.5×10^4 293.TCF cells were plated per well of a 96-well tissue culture plate in 50 μL of serum-free medium. After 23 hours of serum starvation, 10 μL of DMEM+0.2% FBS containing the Notum proteins at various concentrations were mixed with 15 μL of purified antibody at various concentrations, and allowed to incubate for 5 minutes at room temperature. The 25 μL antibody/Notum mixture was then added to the 293.TCF cells. After 1 hour, 25 μL of Wnt3A or control L-cell CM were added to each well. Eighteen hours after addition of CM, 100 μL of One-Glo solution (ProMega Corp.) was added to each well. The contents of each well were mixed thoroughly to lyse the cells, 100 μL of lysate transferred to black 96-well plates, and the luminescence read after 5 minutes.

Data set [2] concerns the target T3, mouse Notum (construct not specified at the place of use) (mouse, UniProt Q8R116 20-503, limits assumed).
T3 construct: Purified antigen from transient transfection of mouse Notum cDNA; also called murine Notum
T3 sequence (looked up): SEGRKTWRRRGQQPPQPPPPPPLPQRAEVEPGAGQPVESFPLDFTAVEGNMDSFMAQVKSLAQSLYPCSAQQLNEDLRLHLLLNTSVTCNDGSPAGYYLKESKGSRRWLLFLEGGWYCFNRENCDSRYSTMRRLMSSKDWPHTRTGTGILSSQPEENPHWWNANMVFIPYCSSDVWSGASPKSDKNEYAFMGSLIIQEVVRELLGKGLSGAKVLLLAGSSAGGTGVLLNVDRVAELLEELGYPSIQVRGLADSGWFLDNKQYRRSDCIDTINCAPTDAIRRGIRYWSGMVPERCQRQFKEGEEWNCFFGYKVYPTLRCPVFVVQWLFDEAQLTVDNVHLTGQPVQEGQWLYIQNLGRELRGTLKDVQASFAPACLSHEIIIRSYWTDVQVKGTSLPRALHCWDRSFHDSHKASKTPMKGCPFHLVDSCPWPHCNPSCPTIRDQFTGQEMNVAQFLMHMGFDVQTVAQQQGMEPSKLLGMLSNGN
As to the kind of experiment: ELISA, Notum coated directly on plate. (In general: In an ELISA, binding on a coated surface is turned into a signal by an enzyme label.)

B1: SC2.D2.2 (antibody, V domains shown)
VH: DVQLVESGGGLVQPGGSRKISCAASGFTFSSYGMHWVRQAPEKGLEWVAYISSSTVTTYYADTVKGRFTISRDNANNTLFLQMTSLRSEDTAMYYCSRQNWDGGYFDVWGAGTTVTVSS
VL: DIVLTQSLASLAVSLGQRATISCRASKSVSSSGYSYMHWYQQKPGQPPKLLIYLASNLESGVPARFSGSGSGTDFTLNIHPVEEEDAATYYCQHSRALPLTFGAGTKLELKR
notes: also called murine SC2.D2.2
For the molecule B1, the EC50 (read off the curve) – broadly, the concentration giving half of the maximal effect – in data set [1] is roughly 9 ng/mL. Moreover, in the data set with hNotum, the “effect on esterase activity of hNotum” value was “greatly reduced esterase activity”. The “inhibition of macaque Notum activity” value with macaque Notum-Fc is “did not inhibit; also recorded: without inhibiting murine or macaque versions of the protein”. For the same molecule, in data set [2], the binding result is “no binding”.
